# Experiment: yeast display, Sf9 membrane polyspecificity reagent, FACS + sequencing; frameworks hold sequencing errors
# Summary of the method: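 In a synthetic yeast display library (Saccharomyces cerevisiae BJ5465), nanobody expression was induced with galactose for 36–48 hours. FACS gates were set low and high (top ~1%) using anti-HA fluorescence for expression and streptavidin fluorescence for binding of the Sf9 membrane reagent. Each polyreactivity label is drawn from the gate of origin.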
row,Sequence,polyreactivity (PSR sort gate)
1,QVQLVESGGGLVQAGGSLRLSCAASGGTIYRNAMGWYRQAPGKEREMVASITRGGSTTYADSVKGRFTISRDNAKNTVYLQMNCLKPEATAVYYCNAPGQQRYDSWGQGTQVTVSS,high polyreactivity
2,QVQLVESGGGLVQAGGSLRLSCAASGGTLFTNAMGWYRQAPGKERELVAAISWRGGRTYYADSVKGRFTISRDNAKNTVYLQMNSLKAEDTAVYYCAAASAAGYDYWGQGTQVTVSS,low polyreactivity
3,QVQLVESGGGLVQAGGSLRLSCAASGGTLRGYAMGWYRQAPGKERELVAAISKRSGSTYYADSVKGRFTISRDNAKNTVYLQMNSLKPEDTAVYYCNTRGLTTEGHYYWGQGTQVTVSS,high polyreactivity
4,QVQLVESGGGLVQAGGSLRLSCAASGGTLRYYAMGGYRQAPGKERELVAVITSSAGRTYYADSVKGRFTISRDNAKNTVYLQMNSLKPEDTAVYYCPAYDAYSPYQALYDYWGQGTQVTVSS,low polyreactivity
5,QVQLVESGGGLVQAGGSLRLSCAASGGTLYRNVMGWYRQAPGKERELVAAISKSGGSTYYADSVKGRFTISRDNAKNTFYLQMNSLKPEDTAVYYCDVSHNRGYDSWGQGTQVTVSS,high polyreactivity
6,QVQLVESGGGLVQAGGSLRLSCAASGGTLYRYAMGWYRQAPGKERELVAGISSSGGRTYNADSVKGRFTISRDNAKNTVYLQMNSLIPEDTAVYYCAKYWVSSYDYWGQGTQVTVSS,high polyreactivity
7,QVQLVESGGGLVQAGGSLRLSCAASGGTSAVYAMGWYRQAPGKERELVAAISSDGSTNYADSVKGRFTISRDNAKNTVYLQMNSLKPEDTAVYYCAVDFSTYEWSGHITRASGSYDYWGQGTQVTVSS,low polyreactivity
8,QVQLVESGGGLVQAGGSLRLSCAASGHIFFYYTMGWYRQAPGKERELVAGITIGGSTNYADSVKGRFTISRDNAKNTVYLKMNSLKPEDTAVYYCNVVKYVYIYSYWEYYYWGQGTQVTVSS,low polyreactivity
9,QVQLVESGGGLVQAGGSLRLSCAASGHIFLHNAMGWYRQAPGKERELVAGITYSDTSTYADSVKGRFTISRDNAKNTVYLQMNSLKPEDTAVYYCEYYYWGQGTQVTVSS,low polyreactivity
10,QVQLVESGGGLVQAGGSLRLSCAASGHTFSISAMGWYRQAPGKERELVAAISLSGGSTDYADSVKGRFTISRDNAKNTVYLQMNSLKPEDTAVYYCAADVFTARRSYDYGGQGTQVTVSS,low polyreactivity
11,QVQLVESGGGLVQAGGSLRLSCAASGIFLGYAMGWYRQAPGKERELVAAITSGDSTYYADSVKGRLTISRDNAKNTVYLQMNSLKPEDTAVYYCAKTRYSWPRVWYNYWGQGTQVTVSS,low polyreactivity
12,QVQLVESGGGLVQAGGSLRLSCAASGIFRQNAMGWYRQAPGKERELVAGISQSGGSTYYADSVKGRFTISRDNAKNTVYLQMNSLKPEDTAVYYCAGVSIWGYDYWGQGTQVTVSS,low polyreactivity
13,QVQLVESGGGLVQAGGSLRLSCAASGIFRRYAMGWYRQAPGKERELVAAISYSGGSTEYADSVKGRFTISRDNAKNTVYLQMNSLKPEDTAVYYCAAVNRPRPRRSDYWGQGTQVTVSS,high polyreactivity
14,QVQLVESGGGLVQAGGSLRLSCAASGIFTNNAMGWYRQAPGKERELVAAITIRGGSTYYADSVKGRFTISRDNAKNTVYLQMNSLKPEDTAVYYCAARGLGYTDLRSVHMYYWGQGTQVTVSS,high polyreactivity
15,QVQLVESGGGLVQAGGSLRLSCAASGIFTYTMGWYRQAPGKERELVAAITNGSTYYADSVKGRFTISRDNAKNTVYLQMNSLKPEDTAVYYCAADRSSAYRWRSAGYYKYDYWGQGTQVTVSS,low polyreactivity
16,QVQLVESGGGLVQAGGSLRLSCAASGIFVSDAMGWYSQAPGKVRELVAAIRYSGDSTYYADSVKGRFTISRDNAKNTVYLQMNSLKPEDTAVYYCAATKGWTRYEYWGQGTQVTVSS,low polyreactivity
17,QVQLVESGGGLVQAGGSLRLSCAASGIFVSYAMGWYRQAPGKERELVAAISWNGGSTYYADSVKGRFTISRDNAKNTVYLQMNSLKPEDTAVYDCAARAYFSYRGYVTDYDYWGQGTQVTVSS,high polyreactivity
18,QVQLVESGGGLVQAGGSLRLSCAASGIFVYYAMGWYRQSPGKERELVAAISSSGGSTYYADSVKGRFTISRDNAKNTVYLQMNSLKREDTAVYYCNTLAYPSDRFEYWGQGTQVTVSS,high polyreactivity
19,QVQLVESGGGLVQAGGSLRLSCAASGIIFAHYAMGWYRQAPGKERELVAAISRGGSSTYYADSVKGRFTISRDNAKNTVYLQMNSLKPEDTAVDYCAAYGPKVIGPKTSYSSSRYDYWGQGTQVTVSS,high polyreactivity
20,QVQLVESGGGLVQAGGSLRLSCAASGIIFAPYAMGWYRHPPGKERELVAAITDSGGSTYYADSVKGRFTISRDNSKNTVYLQMKSLKPEDTAVYYCAVDSNPPDWWAVIYGYWGQGTQVTVSS,low polyreactivity
21,QVQLVESGGGLVQAGGSLRLSCAASGIIFARNAMGWYRQAPGKERELVAAISSRSGSTYYADSVKGRFTISRDNAKNTVYVQMNSLKPEDTAVYYCNAVYAGRFGSHYWGQGTQVTVSS,high polyreactivity
22,QVQLVESGGGLVQAGGSLRLSCAASGIIFARYAMGWYRQAPGKERELVASINWTGGNTYADSVKGRFTISRDNAKNTVYLQMNSLKPEDTAVYYCARDFSPGSSDPKASISFDHWGQGTQVTVSS,low polyreactivity

row,Sequence,polyreactivity (PSR sort gate)
1,QVQLVESGGGLVQAGGSLRLSCAASGIIFASNGMGWSRQPPGKERELVAAISSGGSTNYADSVKGRFTISRDNAKNTVYLQMNSLKPEDTAVYYCAAVRWYREYDYWGQGTQVTVSS,low polyreactivity
2,QVQLVESGGGLVQAGGSLRLSCAASGIIFATYAMGWYRQAPGKERELVASISTGDSTNYADSVKGRFTISRDNAKNTVYLQMNSLKPEDTAVDYCNADSYPYYVYGSNDYWGQGTQVTVSS,low polyreactivity
3,QVQLVESGGGLVQAGGSLRLSCAASGIIFATYAMGWYRQAPGKERELVASISTGDSTNYADSVKGRFTISRDNAKTTVYLQMNSLKPEDTAVYYCNADSYPYYVYGSNDYWGQGTQVTVSS,low polyreactivity
4,QVQLVESGGGLVQAGGSLRLSCAASGIIFAYNAMGWYRQAPGKERELVATITDSGGSTSYADSVKGRFTISRDNAKNTVYLQMNSLKPEDTAVYYCAVLPVYWYWRNYVYLSGYDYWGQVTQVTVSS,low polyreactivity
5,QVQLVESGGGLVQAGGSLRLSCAASGIIFAYYALGWYRQAPGKERELVAGITQSGGDTYYADSVKGRFTISRDNAKNTVYLQLNSLKPEDTAVYYCAAGWWGYDYWGQGTQVTVSS,high polyreactivity
6,QVQLVESGGGLVQAGGSLRLSCAASGIIFAYYAMGWYRQAPGKERELVAAIDYSGASTYYADSVKGRFTISRDNAKNTVYLQMNSLKPEDTAVYYCAKYQYDYYTYDYWGQGTQVTVSS,low polyreactivity
7,QVQLVESGGGLVQAGGSLRLSCAASGIIFAYYAMGWYRQAPGKERELVASITNTGSTYYADSVKGRFTISRDNAKNTVYLQMNSLKPEDTAVYYCNAVLSSNTKWRYPGDYWGQGTQVTVSS,low polyreactivity
8,QVQLVESGGGLVQAGGSLRLSCAASGIIFDCNSMGWYRQAPGKERELVAANTSSTDSTYYADSVKGRFTISRDNAKNTVYLQLNSLKPEDTAVYYCAAAYPSKTFDYWGQGTQVTESS,low polyreactivity
9,QVQLVESGGGLVQAGGSLRLSCAASGIIFDDNTMGWYRQAPGKERELVAAISSGGRTYYADSVKGRFTISRDNAKYTVYLQMNSLKPEDTAVYYFNVDIYTYIASNGELDYWGQGTQVTVSS,low polyreactivity
10,QVQLVESGGGLVQAGGSLRLSCAASGIIFDEYAMGWYRQAPGKERELVAVIDWSGGSTYYADSVKGRFTISRDNAKKTVYLQMNSLKPEVTAVYYCAAEDDSSTPEFDYWGQGTQVTVSS,low polyreactivity
11,QVQLVESGGGLVQAGGSLRLSCAASGIIFDGNAMGWYRQAPGKERELVAAISSRGSRTYYADSVKGRFTISRDHAKNTVYLQMNSLKPEDTAVYYCNAGYGFRSYGYDPWGQGTQVTVSS,high polyreactivity
12,QVQLVESGGGLVQAGGSLRLSCAASGIIFDGNAMGWYRQAPGKERELVAAISSRGSRTYYADSVKGRFTISRDNAKNTVYLQMNSLKPEDTAVYSCNAGYVFRSYGYDPWGQGTQVTVSS,high polyreactivity
13,QVQLVESGGGLVQAGGSLRLSCAASGIIFDGYAMGWYRQAPGKERELVAAISRRGGSTYYADSVKGRFTISRDNAKNTVYLQMNSLKPEDTAVYYCAAEYVYWRIGQYDYWGQGTQVTVSS,high polyreactivity
14,QVQLVESGGGLVQAGGSLRLSCAASGIIFDINAMGWYRQAPGKERELVAAITTSVDSTYYADSVKGRFTISRDTAKNTVYLQMNSLKPEDTAVYYCAVAFVQFTQYDYWGQGTQVTVSS,low polyreactivity
15,QVQLVESGGGLVQAGGSLRLSCAASGIIFDKNAMGWYRQAPGKERELVAVITRGGSTYYADSVKGRFTISRDNAKNTVYLQMNSLKPEDTAVYYCAARYTPGFGYWGQGTQVTVSS,high polyreactivity
16,QVQLVESGGGLVQAGGSLRLSCAASGIIFDSYAMGWYRQAPGKERELVAAITSDSGRTYYADSVKGRFTISRDNAKNTVYLQMNSLKPEDTAVYYCAKRWDGPYDYWGHGTQVTVSS,low polyreactivity
17,QVQLVESGGGLVQAGGSLRLSCAASGIIFDTYAMGWYRPAPGKEREFVARISYSGGTTYYADSVKGRFTSSRDNAKNTVYLQMNSLKPEDTAVYYCATVSRRFYRWSSRYDYWGQGTQVTVSS,high polyreactivity
18,QVQLVESGGGLVQAGGSLRLSCAASGIIFDTYAMGWYRQAPGKERELVAAISRSGDTTYYADSVKGRFTISRDNAKNTVYLQMNSLKPEDTAVYYCNRGNRWNFDSWGQGTQVTVSS,high polyreactivity
19,QVQLVESGGGLVQAGGSLRLSCAASGIIFDYTAMGWYRQAPGKERELVAAITSTDNTNYADSVKGRFTISRDNAKNTVYLQMNSLKPEDTAVYYCNTDYWLSVVYAMDYWGQGTQVTVSS,low polyreactivity
20,QVQLVESGGGLVQAGGSLRLSCAASGIIFDYYAMGWYRQAPGKERELVATITSGGSTNYADSVKGRFTISRDNAKNTVYLQMNSLKPEDTAVYYCAKEYFATWLIPKYDYWGQGTQVTVSS,low polyreactivity
21,QVQLVESGGGLVQAGGSLRLSCAASGIIFEGKARGWYRQAPGTERELVAAISTSTGRTYYADSVKGRFTISRDNAKNTVYLQINSLKPEDTAVYYCAAYIRTTRFDYWGQGTQVTVSS,high polyreactivity

# — the nanobody polyreactivity screen of Harvey et al. (2022)
